Experimental data as given in the supplement of paper PMC5998384.

Experiments:
[1] = tested on: HeLa Kyoto; assay: solubility change mitosis vs G1/S (difference of NP-40 vs SDS log2 ratios) (log2 ratio difference); higher = more soluble in mitosis
[2] = tested on: HeLa Kyoto; assay: solubility in G1/S (NP-40 vs SDS abundance) (log2 ratio); higher = more soluble; conditions: cell cycle stage: G1/S
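For solubility change mitosis vs G1/S (difference of NP-40 vs SDS log2 ratios) in this document: synchronized HeLa Kyoto cells (double thymidine block for G1/S, nocodazole release for mitosis), protein amounts in NP-40 versus SDS lysates quantified by mass spectrometry, three biological replicates.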
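For solubility in G1/S (NP-40 vs SDS abundance) in this document: HeLa Kyoto cells arrested at G1/S by double thymidine block, proteins quantified by TMT10plex mass spectrometry in mild NP-40 versus SDS extracts, three biological replicates.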

MAALGHLAGEAAAAPGPGTPCASRGARLPGPVSSARNPSTVCLCPEQPTCSNADSRAHPLGDEGGTASKKQKNKKKTRNRASVANGGEKASEKLAPEEVPLSAEAQAQQLAQELAWCVEQLELGLKRQKPTPKQKEQAIGAIRTLRSKRTPLPRKRQLMHSLFGDYRAQMEAEWREALRALRAAAYSAQVQPVDGATRKKSQRVCRPRSIWRAKATLDMPDEEFRFNFF [C8ORF33]
solubility change mitosis (log2) [1]: 0.747
solubility in G1/S (log2) [2]: 0.306

MGDAGSERSKAPSLPPRCPCGFWGSSKTMNLCSKCFADFQKKQPDDDSAPSTSNSQSDLFSEETTSDNNNTSITTPTLSPSQQPLPTELNVTSPSKEECGPCTDTAHVSLITPTKRSCGTDSQSENEASPVKRPRLLENTERSEETSRSKQKSRRRCFQCQTKLELVQQELGSCRCGYVFCMLHRLPEQHDCTFDHMGRGREEAIMKMVKLDRKVGRSCQRIGEGCS [ZFAND3]
solubility change mitosis (log2) [1]: -0.0341
solubility in G1/S (log2) [2]: 0.216

MTTKNLETKVTVTSSPIRGAGDGMETEEPPKSVEVTSGVQSRKHHSLQSPWKKAVPSESPGVLQLGKMLTEKAMEVKAVRILVPKAAITHDIPNKNTKVKSLGHHKGEFLGQSEGVIEPNKELSEVKNVLEKLKNSERRLLQDKEGLSNQLRVQTEVNRELKKLLVASVGDDLQYHFERLAREKNQLILENEALGRNTAQLSEQLERMSIQCDVWRSKFLASRVMADELTNSRAALQRQNRDAHGAIQDLLSEREQFRQEMIATQKLLEELLVSLQWGREQTYSPSVQPHSTAELALTNHKLAKAVNSHLLGNVGINNQKKIPSTVEFCSTPAEKMAETVLRILDPVTCKESSPDNPFFESSPTTLLATKKNIGRFHPYTRYENITFNCCNHCRGELIAL [BLZF1]
solubility change mitosis (log2) [1]: 0.0573
solubility in G1/S (log2) [2]: 0.15

MILTKAQYDEIAQCLVSVPPTRQSLRKLKQRFPSQSQATLLSIFSQEYQKHIKRTHAKHHTSEAIESYYQRYLNGVVKNGAAPVLLDLANEVDYAPSLMARLILERFLQEHEETPPSKSIINSMLRDPSQIPDGVLANQVYQCIVNDCCYGPLVDCIKHAIGHEHEVLLRDLLLEKNLSFLDEDQLRAKGYDKTPDFILQVPVAVEGHIIHWIESKASFGDECSHHAYLHDQFWSYWNRFGPGLVIYWYGFIQELDCNRERGILLKACFPTNIVTLCHSIA [C15ORF41]
solubility change mitosis (log2) [1]: 0.0246
solubility in G1/S (log2) [2]: 0.176

FAM208B
solubility change mitosis (log2) [1]: 0.423
solubility in G1/S (log2) [2]: -0.671

MAAPVLLRVSVPRWERVARYAVCAAGILLSIYAYHVEREKERDPEHRALCDLGPWVKCSAALASRWGRGFGLLGSIFGKDGVLNQPNSVFGLIFYILQLLLGMTASAVAALILMTSSIMSVVGSLYLAYILYFVLKEFCIICIVTYVLNFLLLIINYKRLVYLNEAWKRQLQPKQD [VKORC1L1]
solubility change mitosis (log2) [1]: -0.107
solubility in G1/S (log2) [2]: -0.56

MGHPPLEFSDCYLDSPDFRERLKCYEQELERTNKFIKDVIKDGNALISAMRNYSSAVQKFSQTLQSFQFDFIGDTLTDDEINIAESFKEFAELLNEVENERMMMVHNASDLLIKPLENFRKEQIGFTKERKKKFEKDGERFYSLLDRHLHLSSKKKESQLQEADLQVDKERHNFFESSLDYVYQIQEVQESKKFNIVEPVLAFLHSLFISNSLTVELTQDFLPYKQQLQLSLQNTRNHFSSTREEMEELKKRMKEAPQTCKLPGQPTIEGYLYTQEKWALGISWVKYYCQYEKETKTLTMTPMEQKPGAKQGPLDLTLKYCVRRKTESIDKRFCFDIETNERPGTITLQALSEANRRLWMEAMDGKEPIYHSPITKQQEMELNEVGFKFVRKCINIIETKGIKTEGLYRTVGSNIQVQKLLNAFFDPKCPGDVDFHNSDWDIKTITSSLKFYLRNLSEPVMTYRLHKELVSAAKSDNLDYRLGAIHSLVYKLPEKNREMLELLIRHLVNVCEHSKENLMTPSNMGVIFGPTLMRAQEDTVAAMMNIKFQNIVVEILIEHFGKIYLGPPEESAAPPVPPPRVTARRHKPITISKRLLRERTVFYTSSLDESEDEIQHQTPNGTITSSIEPPKPPQHPKLPIQRSGETDPGRKSPSRPILDGKLEPCPEVDVGKLVSRLQDGGTKITPKATNGPMPGSGPTKTPSFHIKRPAPRPLAHHKEGDADSFSKVRPPGEKPTIIRPPVRPPDPPCRAATPQKPEPKPDIVAGNAGEITSSVVASRTRFFETASRKTGSSQGRLPGDES [OPHN1]
solubility change mitosis (log2) [1]: -0.0995
solubility in G1/S (log2) [2]: -0.348
